The results in this text go back to patent US11402384B2 (Duke University, priority 2015, dated 2022).

Data set [1] can be described thus: Immobilization on Ni-NTA magnetic beads, drying and accelerated aging of sensor. The data set is classed as physicochemical. The procedure: The magnetic beads coated with immobilized tsGBP13C_ 244F.Acrylodan were dried by incubation at 50° C. for 20 minutes, using an aqueous ammonium bicarbonate buffer. […] The dried beads were aged in situ inside fully assembled sample-handling cartridges by incubation for up to 7 days at 25° C., 37° C., and 50° C. in the dark. Fluorescence and glucose-responsive properties were tested in cartridges stored for 1, 2 and 7 days. […] The tsGBP2-based FRSs therefore are sufficiently robust to be handled at ambient temperatures in a desiccated state, greatly simplifying manufacturing, distribution, and long-term storage conditions.

The conditions of data set [2]: ligand-free protein; SYPRO Orange, Roche LightCycler. The procedure:
Eight homologs that were predicted to be glucose-binding proteins (FIG. 4, Table 3) were selected to probe different degrees of sequence identity to the ttGBP1 seed, and their glucose-binding properties were determined experimentally. These experiments comprised four successive steps: • 1. Synthetic gene construction. The amino acid sequence of the homology leads were backtranslated into DNA sequences. These were optimized for directing heterologous cytoplasmic expression of the protein homologues in E. coli, using either the OrfOpt or OrfMorph programs. These programs predict mRNA sequences that direct high-level protein expression in E. coli. The predicted gene sequences were assembled de novo from synthetic oligonucleotides. • 2. Heterologous protein expression of the homologues in E. coli. Plasmids carrying the synthetic expression constructs (see above) were transformed into KRX competent cells (Promega). Protein production was induced in bacterial cultures of these cultures, as described in the Materials and Methods. • 3. Purification of successfully expressed protein using immobilized metal affinity chromatography. • 4. Verification of glucose binding. Determination of the glucose-binding properties of the purified proteins using a thermal stability shift assay.
Analysis of glucose-binding properties using thermal melts. The thermal stability of purified GBP candidate proteins was determined by measuring the temperature-dependence of the fluorescence signal of an extrinsically added dye, SYPRO, using a Roche LightCycler (Layton and Hellinga, 2010, Biochemistry, 49, 10831-41). The total fluorescence intensity, S, is given by S=βFfF+βUfU 11 where fF and fU are the fractions of protein in the folded and unfolded states, respectively, and βF and βU the fluorescence baselines of these two states. To get the fractions of the two states, we have
[formula] where KU(T) is the temperature-dependent unfolding equilibrium constant, which by the van't Hoff approximation is given by
[formula] Where T is the temperature, Tm, the unfolding reaction transition mid-point temperature, and ΔHU the enthalpy of unfolding.

B1: W244F A: tsGBP2.13C.W244F (SEQ ID NO: 48) Acrylodan conjugate (conjugate)
chain: MKLEIFSWWAGDCGPALEALIRLYKQKYPGVEVINATVTGGAGVNAKAVLKTRMLGGDPPDTFQVHAGQELIGTWVVADRMEDLTSLFRQEGWLQAFPKGLIDLLSYKGGIWSVPVNIHRSNVMWYIPAKLKEWGVTPPKTWAEFLATAQTLKRKGLEAPLALGENWTQQHLWESVALATLGADGWNNLWSGKLKFTDPKAVAVWETFGKVLDAANKDAAGLSWQQAVDRVVQGKAAFNIMGDFAAGYMSTTLKLKPGTDFAWTPSPGTSGIFMMLSDSFGLPKGAKNRQNAINWLKLVGSKEGQDTFNPLKGSIAARLDSDPAKYNAYGQSAMKDWKSNRIVGSLVHGAVAPESFMSQFGTVMEIFLQSRNPQAAANAAQAIANQVGLGRGGSHHHHHH
modifications: Acrylodan conjugate; tsGBP2.13C.W244F (13C, 244F double substitution mutant with signal peptide replaced with M and a GGSHHHHHH at C-terminus)
Regarding B1, the “stability properties upon rehydration after drying” value in data set [1] (beads dried at 50° C. for 20 minutes, determined up to 100° C.) was “recovered upon rehydration”. In addition, in data set [1] (dried beads stored 1, 2 and 7 days at 25° C., 37° C., and 50° C. in the dark), the “fluorescence ratio in the absence of glucose and glucose affinities after aging” value is “remained approximately unchanged”. Further, in data set [1] (immobilized via C-terminal hexa-histidine tag on Ni-NTA magnetic beads, measured up to 100° C.), the “protein stability on beads compared with solution” value is “not perturbed”.

B2: dmGBP3: glucose-binding protein from Deinococcus maricopensis, SEQ ID NO: 11 (protein)
chain: MKLEIFSWWSGDEGPALEALVKLYKQKYPSVDVVNATVAGGAGTNAKAVLKTRMLGGDPPDSFQAHAGQELIGTWVVANRMEDLSSLFKSEGWTTKFPKDLLPLISSKGGIWSVPVNVHRSNVMWYIPANLKKWGVTAPKTWDQFLTTAKTLKTKNVTPLALGENWTQQHLWESVAVGTLGAQGWQNLWSGKLKFTDPKVVKVWDTFGKVLDATNKDASGLSWQQATDRVVNGQAAFNIMGDWAAGYLSTTKKLKPGTGFGWAPSPSTSGTFIFLADSFGLPKGAKDRAEALSWLKLLGSKQGQDTFNPLKGSIAARVDSDLSKYSTYSQSAAKDWKSNKIVGSLTHGAVAPESFTSTFGTVIDAFVASRNAQVAAATTQQLADKAGLGKGGSHHHHHH
modifications: dmGBP3 (with signal peptide replaced with M and a GGSHHHHHH at C-terminus)
In the case of B2, the “Thermostability ^apoTm” value in data set [2] amounted to 47 °C.
